From patent US20150239980A1 (NEOTOPE BOSCIENCES, published 2015)

Key:
recombinant hMCAM-His [1] = molecular target: T1, recombinant hMCAM-His (human, UniProt P43121 24-559); assay: ForteBio Octet Red, hMCAM-His analyte; Forte column 1; vs rodent 2120
T1 construct: not shown: His tag
T1 chain: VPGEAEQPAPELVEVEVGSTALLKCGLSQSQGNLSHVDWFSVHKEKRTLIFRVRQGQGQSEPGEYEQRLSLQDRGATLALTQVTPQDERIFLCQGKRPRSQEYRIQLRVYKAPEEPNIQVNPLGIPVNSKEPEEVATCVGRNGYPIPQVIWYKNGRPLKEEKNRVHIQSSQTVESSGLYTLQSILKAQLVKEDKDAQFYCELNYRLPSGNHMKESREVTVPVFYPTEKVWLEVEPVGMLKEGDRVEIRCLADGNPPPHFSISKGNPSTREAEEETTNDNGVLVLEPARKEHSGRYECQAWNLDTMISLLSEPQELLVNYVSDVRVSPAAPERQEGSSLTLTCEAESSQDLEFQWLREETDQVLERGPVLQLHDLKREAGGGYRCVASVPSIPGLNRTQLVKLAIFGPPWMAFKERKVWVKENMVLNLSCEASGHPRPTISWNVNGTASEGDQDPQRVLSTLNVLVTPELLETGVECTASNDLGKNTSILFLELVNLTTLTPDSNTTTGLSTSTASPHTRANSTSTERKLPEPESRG
Method: (§1) The affinities were measured using the ForteBio Octet Red. Anti-human Fc sensors were used to capture the humanized antibodies, and several concentrations of hMCAMHis analyte were used to determine the affinity using a 1:1 fitting model.

[2] = molecular target: T2, human MCAM (melanoma cell adhesion molecule) expressed on transfected CHO cells (human, UniProt P43121 24-646); assay: summary of laminin blocking assay on hMCAM CHO cells, competitor laminin 411; vs rodent 2120
T2 construct: also called hMCAM; CD146
T2 chain: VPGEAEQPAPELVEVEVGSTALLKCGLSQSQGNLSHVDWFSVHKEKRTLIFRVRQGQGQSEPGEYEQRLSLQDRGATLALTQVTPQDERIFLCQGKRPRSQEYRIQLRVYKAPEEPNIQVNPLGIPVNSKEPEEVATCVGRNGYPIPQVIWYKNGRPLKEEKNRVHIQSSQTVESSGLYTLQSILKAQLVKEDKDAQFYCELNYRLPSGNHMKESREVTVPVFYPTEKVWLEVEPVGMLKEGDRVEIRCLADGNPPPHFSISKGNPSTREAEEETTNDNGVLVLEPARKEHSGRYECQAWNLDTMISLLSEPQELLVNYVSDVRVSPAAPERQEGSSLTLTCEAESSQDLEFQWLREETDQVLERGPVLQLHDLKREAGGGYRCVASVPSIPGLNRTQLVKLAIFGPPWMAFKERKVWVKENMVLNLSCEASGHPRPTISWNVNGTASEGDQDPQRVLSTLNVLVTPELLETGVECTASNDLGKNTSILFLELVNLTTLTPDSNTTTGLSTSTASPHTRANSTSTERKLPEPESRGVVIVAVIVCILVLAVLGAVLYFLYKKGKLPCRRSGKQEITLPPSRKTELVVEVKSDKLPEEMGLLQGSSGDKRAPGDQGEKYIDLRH
Method: (§2) Following incubation for 30-45 minutes, the cells were washed and anti-laminin conjugated to AF650 (NovusBio) was added to detect the bound laminin. The cells were run on a flow cytometer to measure the laminin binding signal.

recombinant hMCAM-His [3] = molecular target: T1, recombinant hMCAM-His; assay: summary of ForteBio and competitive ELISA on hMCAM-His; vs rodent 2120
Method: (§3) ELISA plates were coated with recombinant hMCAM-His, and blocked with casein buffer to prevent non-specific binding. Biotinylated rodent or chimeric antibody was added at a subsaturating concentration, in the presence or absence of 3× increasing concentrations of unlabeled competitor (humanized antibody, rodent, or chimeric). After washing to remove unbound antibody, streptavidin HRP was added to allow detection of the biotinylated antibody. The ELISA was developed with TMB substrate and the OD450 was measured. The IC50 of the unlabeled competitor was determined using the GraphPad Prism5 software.
as §1

recombinant hMCAM-His [4] = molecular target: T1, recombinant hMCAM-His; assay: ForteBio Octet Red, hMCAM-His analyte; Forte column 2; vs rodent 2120
Method: as §1

[5] = molecular target: T2, human MCAM (melanoma cell adhesion …); assay: laminin/FACS on hMCAM CHO cells, competitor laminin 411; Expt#2; vs rodent 2120
Method: as §2

[6] = molecular target: T2, human MCAM (melanoma cell adhesion …); assay: laminin/FACS blocking assay, % inhibition of laminin 411 binding to hMCAM-expressing CHO cells against antibody concentration; blocked ligand: laminin 411
Method: as §2

[7] = molecular target: T2, human MCAM (melanoma cell adhesion …); assay: laminin/FACS on hMCAM CHO cells, competitor laminin 411; Expt#1; vs rodent 2120
Method: as §2

recombinant hMCAM-His [8] = molecular target: T1, recombinant hMCAM-His; assay: competitive ELISA on hMCAM-His, competitor biotinylated rodent or chimeric 2120; vs rodent 2120
Method: as §3

[9] = molecular target: T3, recombinant human laminin 411 (Biolamina) (human, UniProt Q16363 25-1823; P07942 22-1786; P11047 34-1609); assay: SPR, Biacore T200, Fc-tagged MCAM IgG1-2A captured by anti-Fc, laminin 411 as analyte, steady state
T3 construct: also called laminin 8
Method: (§4) The binding affinity of the human laminin-α4 to human MCAM IgG1-2A was measured by Surface Plasmon Resonance on a Biacore T200 machine. Human Fc-specific F(ab′)₂ IgG (Jackson Laboratories) was immobilized on a CM5 chip using amine coupling. The four flow cells of the CM5 chips dextran surface are activated by a 7 min injection of freshly prepared 1:1 50 mM NHS: EDC at a flow rate of 5 μl/min. 70 μl IgG solution (pH 4.5) was injected for 3 min to a density of up to 3 000 RU. The coupling is then blocked by a 7 min injection of 1M ethanolamine to deactivate residual reactive sites. Recombinant human Fc-tagged MCAM IgG1-2A in degassed and filtered HBS-P buffer containing 12 mg/ml BSA and 12 mg/ml carboxy-methylated dextran sodium salt was captured by anti-Fc IgG to a capture level 1560 RU. Recombinant human Fc-tagged MCAM IgG1-2A was centrifuged at 14 000 rpm for 5 min at 4° C. before injection for 20 min at a flow rate of 5 μl/min over the anti-Fc IgG containing surface. Flow cell 1 was left free of IgG to serve as a control surface. One flow cell was used to capture recombinant human IgG1 Fc (R&D systems) to serve as a negative control. […] Buffer injections served as negative control. Data evaluation: Data from the buffer injections and the control surface were subtracted to remove artifacts. […]

[10] = molecular target: T4, recombinant human laminin 511 (Biolamina) (human, UniProt O15230 36-3695; P07942 22-1786; P11047 34-1609); assay: SPR, Biacore T200
T4 construct: negative control; also called laminin 10 (α5β1γ1)

[11] = molecular target: T5, Recombinant human laminin-α4 (R&D systems) (human, UniProt Q16363-2 826-1816); assay: SPR, Biacore T200, Fc-tagged MCAM IgG1-2A captured by anti-Fc, laminin-α4 as analyte, 1:1 model
T5 construct: also called laminin α-4 chain
T5 sequence (looked up): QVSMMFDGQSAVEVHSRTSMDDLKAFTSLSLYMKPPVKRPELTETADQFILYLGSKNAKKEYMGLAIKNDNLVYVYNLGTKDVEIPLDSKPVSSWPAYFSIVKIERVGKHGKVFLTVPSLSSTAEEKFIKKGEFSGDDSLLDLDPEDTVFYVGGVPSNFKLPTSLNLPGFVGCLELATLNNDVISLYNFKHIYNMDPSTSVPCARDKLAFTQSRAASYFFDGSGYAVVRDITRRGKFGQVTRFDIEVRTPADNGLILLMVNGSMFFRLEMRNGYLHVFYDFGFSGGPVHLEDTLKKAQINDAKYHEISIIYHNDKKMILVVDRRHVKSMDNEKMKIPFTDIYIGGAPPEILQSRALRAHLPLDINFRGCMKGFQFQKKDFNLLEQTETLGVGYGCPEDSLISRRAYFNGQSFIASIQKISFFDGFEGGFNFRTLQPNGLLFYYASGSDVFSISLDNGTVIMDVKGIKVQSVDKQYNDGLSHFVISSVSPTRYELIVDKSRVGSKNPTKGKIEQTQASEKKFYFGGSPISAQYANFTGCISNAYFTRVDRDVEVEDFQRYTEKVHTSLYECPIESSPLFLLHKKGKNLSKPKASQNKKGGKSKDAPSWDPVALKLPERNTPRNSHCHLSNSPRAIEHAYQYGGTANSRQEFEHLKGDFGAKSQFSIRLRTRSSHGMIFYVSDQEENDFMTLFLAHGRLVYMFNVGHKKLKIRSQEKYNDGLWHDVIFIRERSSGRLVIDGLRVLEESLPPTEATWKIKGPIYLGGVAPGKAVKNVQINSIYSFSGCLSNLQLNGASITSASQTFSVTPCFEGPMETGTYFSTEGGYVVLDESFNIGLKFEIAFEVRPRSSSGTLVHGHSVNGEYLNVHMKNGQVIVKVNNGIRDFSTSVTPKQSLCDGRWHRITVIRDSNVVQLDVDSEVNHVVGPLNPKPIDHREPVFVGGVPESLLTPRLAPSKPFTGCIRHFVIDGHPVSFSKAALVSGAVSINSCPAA
Method: as §4

[12] = molecular target: T2, human MCAM (melanoma cell adhesion …); assay: laminin/FACS on hMCAM CHO cells, competitor laminin 411; Expt#2; seems to serve as the reference of the 2107 family in this column
recombinant hMCAM-His [13] = molecular target: T1, recombinant hMCAM-His; assay: competitive ELISA on hMCAM-His, competitor biotinylated rodent or chimeric 2107; Expt. #1; vs rodent 2107
How it was run: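 Plates coated with recombinant hMCAM-His and casein-blocked; biotinylated rodent or chimeric antibody at subsaturating level competed by 3× serial concentrations of unlabeled humanized, rodent or chimeric antibody. Bound biotinylated antibody detected with streptavidin-HRP/TMB at OD450; competitor IC50 fitted.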

recombinant hMCAM-His [14] = molecular target: T1, recombinant hMCAM-His; assay: competitive ELISA on hMCAM-His, competitor biotinylated rodent or chimeric 2107; Expt. #2; vs rodent 2107
Method: as §3

T3 sequence (P07942 22-1786, chain 2 of 2): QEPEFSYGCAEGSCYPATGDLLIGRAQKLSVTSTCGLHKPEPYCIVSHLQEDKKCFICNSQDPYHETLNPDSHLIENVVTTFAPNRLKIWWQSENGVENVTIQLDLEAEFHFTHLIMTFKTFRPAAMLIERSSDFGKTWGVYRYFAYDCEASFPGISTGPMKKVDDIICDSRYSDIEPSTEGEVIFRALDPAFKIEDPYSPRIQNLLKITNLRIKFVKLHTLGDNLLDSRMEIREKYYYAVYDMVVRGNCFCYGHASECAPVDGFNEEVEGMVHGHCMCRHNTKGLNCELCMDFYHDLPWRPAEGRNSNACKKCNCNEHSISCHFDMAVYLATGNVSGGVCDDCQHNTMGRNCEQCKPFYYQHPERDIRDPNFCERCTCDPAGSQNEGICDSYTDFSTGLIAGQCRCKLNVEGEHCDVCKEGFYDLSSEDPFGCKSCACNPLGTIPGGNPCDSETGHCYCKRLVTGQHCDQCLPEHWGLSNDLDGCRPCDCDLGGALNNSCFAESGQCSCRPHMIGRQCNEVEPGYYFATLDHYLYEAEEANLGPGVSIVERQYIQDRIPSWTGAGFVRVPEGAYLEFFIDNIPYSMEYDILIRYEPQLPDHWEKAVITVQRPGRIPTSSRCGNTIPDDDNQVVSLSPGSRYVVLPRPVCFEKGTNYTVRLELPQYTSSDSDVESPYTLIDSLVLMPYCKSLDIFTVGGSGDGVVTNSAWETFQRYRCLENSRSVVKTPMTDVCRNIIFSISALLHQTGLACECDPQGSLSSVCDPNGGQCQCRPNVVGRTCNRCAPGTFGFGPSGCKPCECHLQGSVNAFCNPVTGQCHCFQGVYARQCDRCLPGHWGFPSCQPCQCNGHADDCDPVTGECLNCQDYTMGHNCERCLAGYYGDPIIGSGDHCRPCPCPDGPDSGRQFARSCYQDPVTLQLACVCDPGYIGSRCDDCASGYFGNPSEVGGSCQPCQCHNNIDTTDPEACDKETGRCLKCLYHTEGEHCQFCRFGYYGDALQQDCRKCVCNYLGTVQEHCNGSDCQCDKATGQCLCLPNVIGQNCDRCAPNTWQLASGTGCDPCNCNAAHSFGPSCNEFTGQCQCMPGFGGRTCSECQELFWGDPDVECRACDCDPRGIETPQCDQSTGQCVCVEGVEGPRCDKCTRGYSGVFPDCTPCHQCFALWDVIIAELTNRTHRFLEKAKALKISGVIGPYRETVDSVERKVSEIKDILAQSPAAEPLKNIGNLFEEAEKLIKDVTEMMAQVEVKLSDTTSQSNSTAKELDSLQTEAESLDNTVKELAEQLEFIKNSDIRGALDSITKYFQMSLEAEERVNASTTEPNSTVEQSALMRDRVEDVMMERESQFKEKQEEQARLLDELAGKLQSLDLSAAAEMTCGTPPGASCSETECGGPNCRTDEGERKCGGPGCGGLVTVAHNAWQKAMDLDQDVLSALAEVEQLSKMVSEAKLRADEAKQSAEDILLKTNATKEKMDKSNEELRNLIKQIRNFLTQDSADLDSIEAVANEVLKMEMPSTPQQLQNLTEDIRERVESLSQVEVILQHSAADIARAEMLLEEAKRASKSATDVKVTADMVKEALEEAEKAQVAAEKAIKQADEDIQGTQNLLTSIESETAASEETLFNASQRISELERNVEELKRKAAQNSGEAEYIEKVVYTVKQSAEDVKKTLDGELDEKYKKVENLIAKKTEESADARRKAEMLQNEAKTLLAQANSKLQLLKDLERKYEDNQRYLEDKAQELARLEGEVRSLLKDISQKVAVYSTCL
T3 sequence (P11047 34-1609, chain 3 of 2): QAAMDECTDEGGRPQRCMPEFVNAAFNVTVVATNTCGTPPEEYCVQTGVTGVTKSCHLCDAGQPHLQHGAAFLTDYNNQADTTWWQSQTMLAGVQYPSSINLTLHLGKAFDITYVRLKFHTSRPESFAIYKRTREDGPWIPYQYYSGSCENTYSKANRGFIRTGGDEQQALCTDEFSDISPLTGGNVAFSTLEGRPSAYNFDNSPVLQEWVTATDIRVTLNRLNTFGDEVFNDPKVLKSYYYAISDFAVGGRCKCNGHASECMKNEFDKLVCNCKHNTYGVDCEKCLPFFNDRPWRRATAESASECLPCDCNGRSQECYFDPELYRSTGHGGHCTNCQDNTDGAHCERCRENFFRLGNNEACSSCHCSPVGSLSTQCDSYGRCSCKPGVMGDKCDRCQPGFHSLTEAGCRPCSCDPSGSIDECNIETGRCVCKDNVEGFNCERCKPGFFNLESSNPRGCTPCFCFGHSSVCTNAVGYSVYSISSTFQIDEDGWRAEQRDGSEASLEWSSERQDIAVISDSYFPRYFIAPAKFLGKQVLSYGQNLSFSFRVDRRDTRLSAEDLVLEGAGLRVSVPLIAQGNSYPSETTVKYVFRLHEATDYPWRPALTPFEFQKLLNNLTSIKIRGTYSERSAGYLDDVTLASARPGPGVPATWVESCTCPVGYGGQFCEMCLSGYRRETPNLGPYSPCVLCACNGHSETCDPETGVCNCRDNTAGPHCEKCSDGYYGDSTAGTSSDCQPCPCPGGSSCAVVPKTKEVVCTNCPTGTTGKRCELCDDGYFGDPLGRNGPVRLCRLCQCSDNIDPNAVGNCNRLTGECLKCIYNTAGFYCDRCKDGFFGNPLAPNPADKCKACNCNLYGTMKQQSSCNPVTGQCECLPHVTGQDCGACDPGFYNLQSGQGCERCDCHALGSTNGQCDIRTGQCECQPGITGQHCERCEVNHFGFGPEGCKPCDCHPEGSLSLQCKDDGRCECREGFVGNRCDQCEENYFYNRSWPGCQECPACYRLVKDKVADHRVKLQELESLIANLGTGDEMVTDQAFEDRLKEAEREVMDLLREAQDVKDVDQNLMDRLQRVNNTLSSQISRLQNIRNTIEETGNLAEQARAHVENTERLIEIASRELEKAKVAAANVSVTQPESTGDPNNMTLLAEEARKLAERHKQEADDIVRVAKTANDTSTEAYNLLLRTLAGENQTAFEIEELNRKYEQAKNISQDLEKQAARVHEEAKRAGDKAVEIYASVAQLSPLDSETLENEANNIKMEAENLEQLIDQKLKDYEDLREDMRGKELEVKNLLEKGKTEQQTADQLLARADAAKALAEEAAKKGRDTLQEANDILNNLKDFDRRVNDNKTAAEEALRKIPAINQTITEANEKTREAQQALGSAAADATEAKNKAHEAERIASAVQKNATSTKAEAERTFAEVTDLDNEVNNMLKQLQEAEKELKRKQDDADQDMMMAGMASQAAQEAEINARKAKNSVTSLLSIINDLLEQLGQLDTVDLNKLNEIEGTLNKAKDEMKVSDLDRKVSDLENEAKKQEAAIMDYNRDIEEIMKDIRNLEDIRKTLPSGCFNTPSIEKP

B1: h2120_VH5 + h2120_VL3 (antibody, human IgG1, V domains shown)
VH: QVTLKESGPVLVKPTETLTLTCTVSGFSLTSNAVSWVRQPPGKALEWIAAISSGGTTYYNSAFKSRLTISRDTSKSQVVLTMTNMDPVDTATYYCARRYGYGWYFDFWGQGTLVTVSS
VL: DIQMTQSPSSLSASVGDRVTINCKASQNIYNSLAWYQQKPGKAPKVLIFNANSLQTGIPSRFSGSGSGTDFTLTISSLQPEDFATYYCQQFYSGYTFGQGTKLEIK
notes: also called h2120VH5VL3; VH5VL3
Recombinant hMCAM-His [1]
  fold over rodent (Forte affinity): 1.1 fold
[2]
  fold reduction in potency compared to the rodent: < 2 fold
Recombinant hMCAM-His [3]
  fold reduction in affinity compared to the rodent: < 2 fold
Recombinant hMCAM-His [4]
  fold over rodent (Forte affinity): 1.2 fold
[5]
  fold over rodent (blocking, laminin/FACS): 1.5 fold
[6]
  IC50 (read off the curve): ~0.6 µg/mL
[7]
  fold over rodent (blocking, laminin/FACS): 1.2 fold
Recombinant hMCAM-His [8]
  fold over rodent (competitive ELISA): 2.4 fold

B2: Recombinant human Fc-tagged MCAM IgG1-2A (human MCAM domains 1 and 2, amino acids 19-242) (Fc fusion)
chain: PRVAGVPGEAEQPAPELVEVEVGSTALLKCGLSQSQGNLSHVDWFSVHKEKRTLIFRVRQGQGQSEPGEYEQRLSLQDRGATLALTQVTPQDERIFLCQGKRPRSQEYRIQLRVYKAPEEPNIQVNPLGIPVNSKEPEEVATCVGRNGYPIPQVIWYKNGRPLKEEKNRVHIQSSQTVESSGLYTLQSILKAQLVKEDKDAQFYCELNYRLPSGNHMKESREVT
notes: also called human MCAM IgG1-2A; MCAM Fc domains 1 and 2; not shown: human Fc tag
[9]
  Kd: 66 nM
[10]
  binding result: no binding (tested: 5-175 nM)
[11]
  Kd: 60 nM

B3: chimeric 2107 (antibody, V domains shown)
VH: QVQLKESGPGLVQSSQTLSLTCTVSGFSLTSNGVSWVRQPPGKGLEWIAAISSGGSTYYNSAFKSRLSISRNTSKSQVLLKMNSLQTEDTGMYFCARHRPFYFDYWGQGVMVTVSS
VL: DIQVTQSPSLLSASVGDRVTLNCKGSQNIYKSLAWFRLKRGEAPKLLIYDANSLQTGIPSRFSGSGSGTDFTLTITSLQPEDVATYFCQQYYSGYTFGAGTKLELK
[12]
  fold over rodent (blocking, laminin/FACS): 1 fold
Recombinant hMCAM-His [13]
  fold over rodent (competitive ELISA): 0.68 fold
Recombinant hMCAM-His [14]
  fold over rodent (competitive ELISA): 1.01 fold
